From patent US20220403025A1 come the findings set out here.

Where a chain is given by its changes, count along the chain named.

Test [1] deals with L1 (DV1-GV4) antigen: soluble heterodimeric γδ TCR in leucine zipper format (TRDV1/TRGV4) (human). The test is described as follows: DELFIA affinity ranking with 100 nM biotinylated L1.
Test [2] shares this target. The test is described as follows: SPR (MASS-2), IgG captured via protein G, L1 as analyte, steady-state 1:1 fit.
Test [3] addresses Vδ1 γδ T cell receptor on skin-derived γδ T cells (human). The test is described as follows: cell-based or functional assay.
The target of test [4] is L1 (DV1-GV4) antigen: soluble heterodimeric γδ TCR in leucine zipper format (TRDV1/TRGV4) (human). The test is described as follows: ELISA (DELFIA, time-resolved fluorometry) on antigen L1, titration of the mAb.

L1 (DV1-GV4) antigen: soluble heterodimeric γδ TCR in leucine zipper format (TRDV1/TRGV4) (human), sequence (main, as listed by the source): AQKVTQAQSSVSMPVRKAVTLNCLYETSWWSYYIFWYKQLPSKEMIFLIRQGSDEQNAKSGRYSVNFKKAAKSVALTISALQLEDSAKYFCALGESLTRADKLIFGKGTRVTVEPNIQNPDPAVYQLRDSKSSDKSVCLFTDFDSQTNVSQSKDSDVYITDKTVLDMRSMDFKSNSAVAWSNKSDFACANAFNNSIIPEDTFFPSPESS

B1: 1245_P02_G04 (scFv) (scFv)
scFv: QVQLQQSGPGLVKPSQTLSLTCAISGDSVSSKSAAWNWIRQSPSRGLEWLGRTYYRSKWSTDYAASVKSRITINPDTSKNQLSLQLNSVTPEDTAVYYCARTWSGYVDVWGQGTLVTVSSGGGGSGGGGSGGGASDIQMTQSPPALSASVGDRVTITCRASQDINDWLAWYQHKPGKAPKLLIYDASSLESGVPSRFSGSGSGTEFTLTISSLQPDDFATYYCQQSYSTPQVTFGQGTRLEIK
With B1, in test [1], the DELFIA signal, 100 nM L1 was 5900.

B2: 1251_P02_G10 (scFv) (scFv)
scFv: EVQLVESGGGLVQPGGSLRLSCAASGFTFSDYYMSWIRQAPGKGLEWVSYISSSGSTIYYADSVKGRFTISRDNAKNSLYLQMNSLRAEDTAVYYCARHSWNDAFDIWGRGTLVTVSSGGGGSGGGGSGGGASDIQMTQSPSSLSASVGDRVTITCRASQSISSHLNWYQQKPGKAPKLLIYAASSLQSGVPSRFSASGSGTDFTLTISSLQPEDFATYYCQQSYSTLLTFGGGTKVEIK
The molecule B2 returned a DELFIA signal, 100 nM L1 in test [1] of 17100.

B3: 1251_P02_C05 (scFv) (scFv)
scFv: EVQLLESGGGLVQPGGSLRLSCAASGFTFSSYAMSWVRQAPGKGLEWVSAISGGGGTTYSSDSVKGRFTISRDNSKNTLYLQMNSLRAEDTAVYYCARDSGVAFDIWGQGTLVTVSSGGGGSGGGGSGGGASDIQMTQSPSFLSASVGDRVTITCRASQNIRTWLAWYQQKPGRAPKLLIYDASSLESGVPSRFSGSGSGTDFTLTISSLQPEDFATYYCQQFKRYPPTFGLGTKVEIK
For the molecule B3, the DELFIA signal, 100 nM L1 in test [1] was found to be 65300.

B4: 1245_P01_E07 (scFv) (scFv)
scFv: QVQLVESGGGLVKPGGSLRLSCAASGFTFSDYYMSWIRQAPGKGLEWVSYISSSGSTIYYADSVKGRFTISRDNAKNSLYLQMNSLRAEDTAVYYCARVDYADAFDIWGQGTLVTVSSGGGGSGGGGSGGGASDIQMTQSPSSLSASVGDRVTIACRAGQSIGTYLNWYQQKPGKAPKLLIYVASSLQSGVPSRFSGSGSGTEFTLTISSLQPEDFATYYCQQSYSTLLTFGRGTKVEIK
Take B4: in test [1], the DELFIA signal, 100 nM L1 came out at 163000.

B5: 1139_P01_E04 (scFv) (scFv)
scFv: QVQLQQSGPGLVKPSQTLSLTCAISGDSVSSNSAAWNWIRQSPSRGLEWLGRTYYRSKWYNDYAVSVRSRITINPDTSKNQFSLQLNSVTPEDTAVYYCARSWNDAFDIWGQGTTVTVSSGGGGSGGGGSGGGASDIVMTQSPSTLSASIGDRVTITCRAGQSISTWLAWYQQKPGKAPKLLIYDASSLESGVPLRFSGSGSGTDFTLTISSLQPEDFATYYCQQSYSTPLTFGGGTKVEIK
As to B5, the DELFIA signal, 100 nM L1 in test [1] worked out at 23800.

B6: 1251_P02_G10 (IgG1) (antibody, V domains shown)
VH: EVQLVESGGGLVQPGGSLRLSCAASGFTFSDYYMSWIRQAPGKGLEWVSYISSSGSTIYYADSVKGRFTISRDNAKNSLYLQMNSLRAEDTAVYYCARHSWNDAFDIWGRGTLVTVSS
VL: DIQMTQSPSSLSASVGDRVTITCRASQSISSHLNWYQQKPGKAPKLLIYAASSLQSGVPSRFSASGSGTDFTLTISSLQPEDFATYYCQQSYSTLLTFGGGTKVEIKR
Broadly, the Kd is the concentration at which binding is half-saturated. A low value points to tighter binding. For the molecule B6, in test [2], the Kd came out at 829 nM. In test [3], this molecule came in with a TCR downregulation (EC50 µg/ml - 3 donors) of 0.849 µg/mL.

B7: 1245_P02_G04 (IgG1, made in HEK) (antibody, V domains shown)
VH: QVQLQQSGPGLVKPSQTLSLTCAISGDSVSSKSAAWNWIRQSPSRGLEWLGRTYYRSKWSTDYAASVKSRITINPDTSKNQLSLQLNSVTPEDTAVYYCARTWSGYVDVWGQGTLVTVSS
VL: DIQMTQSPPALSASVGDRVTITCRASQDINDWLAWYQHKPGKAPKLLIYDASSLESGVPSRFSGSGSGTEFTLTISSLQPDDFATYYCQQSYSTPQVTFGQGTRLEIK
The term EC50 (read off the curve) denotes the concentration giving half of the maximal effect. A low value points to higher potency in that assay. With B7, in test [4], the EC50 (read off the curve) was determined as 0.07 µg/mL.

B8: AD3 (variant G04, made in CHO) (antibody, V domains shown)
VH: B7 VH with Q1E
VL: B7 VL
With B8, the EC50 (read off the curve) in test [4] was 0.07 µg/mL.

B9: AD4 (hinge modified AD3, made in CHO) (antibody, V domains shown)
VH: B7 VH with Q1E
VL: B7 VL
In turn, B9 showed an EC50 (read off the curve) in test [4] of 0.07 µg/mL.

B10: AD3gly (defucosylated AD3 made in engineered CHO) (antibody, V domains shown)
VH: B7 VH with Q1E
VL: B7 VL
B10 came in with an EC50 (read off the curve) in test [4] of 0.07 µg/mL.

B11: 1245_P02_F07 (scFv) (scFv)
scFv: QVQLQQSGPGLVKPSQTLSLTCVISGDSVSSNSAAWNWIRQSPSRGLEWLGRTYYRSKWYNDYAVSVKSRITINPDTSKNQFSLQLNSVTPEDTAVYYCARDYYYSMDVWGQGTMVTVSSGGGGSGGGGSGGGASDIQMTQSPSTLSASVGDRVTITCRASQSISSWLAWYQQKPGKAPKLLIYDASSLESGVPLRFSGSGSGTEFTLTISSLQPDDFATYYCQQSHSHPPTFGPGTKVDIK
Consider B11, for which the DELFIA signal, 100 nM L1 in test [1] was found to be 10400.

B12: 1252_P01_C08 (scFv) (scFv)
scFv: EVQLLESGGGLVQPGRSLRLSCAASGFTVSSNYMSWVRQAPGKGLEWVSVIYSGGSTYYADSVKGRFTISRDNSKNTLYLQMNSLRAEDTAVYYCASPIELGAFDIWGQGTLVTVSSGGGGSGGGGSGGGASSYELTQPPSVSVAPGKTARITCGGNNIGSQSVHWYQQKPGQAPMLVIYYDSDRPSGIPERFSGSNSGNTATLTISRVEAGDEADYYCQVWDSSSDHVVFGGGTKLTVL
B12 came in with a DELFIA signal, 100 nM L1 in test [1] of 1980.

B13: 1245_P01_G09 (scFv) (scFv)
scFv: QVQLQQSGPGLVKPSQTLSLTCAISGDSVSSNSAAWNWIRQSPSRGLEWLGRTYYGSKWYNEYALSVKSRIIINPDTSKNQFSLQLNSVTPEDTAVYYCARDYYYSMDVWGQGTLVTVSSGGGGSGGGGSGGGASDIVMTQSPSTLSASIGDRVTITCRAGQSISTWLAWYQQKPGKAPKLLIYDASSLESGVPLRFSGSGSGTEFTLAISSLQPDDFATYYCQQSYSTPVTFGQGTKVEIK
With B13, the DELFIA signal, 100 nM L1 in test [1] came out at 18400.

B14: 1141_P01_E01 (scFv) (scFv)
scFv: QVQLVQSGAEVKKPGESLKISCKGSGYSFTSYWIGWVRQMPGKGLEWMGIIYPGDSDTRYSPSFQGQVTISADKSISTAYLQWSSLKASDTAMYYCARHQVDTRTADYWGQGTLVTVSSGGGGSGGGGSGGGASQSALTQPASVSGSPGQSVTISCTGTRSDVGGYNYVSWYQHHPGKAPKLMIYEVSNRPSGVSNRFSGSKSGNTASLTISGLQAEDEADYYCSSYTSTSTLVFGGGTKLTVL
For the molecule B14, the DELFIA signal, 100 nM L1 in test [1] was determined as 137000.
